{
  "source": "patent US8058228B2",
  "about": "“Leptin peptide antagonists” (Boston Biomedical Research Institute, priority 2004, dated 2011)",
  "target": "T1, IL-1R tl (Homo sapiens, UniProt P14778)",
  "T1 construct": "endogenous in cells; host or cells: Ishikawa cells",
  "T1 sequence (P14778 18-569)": "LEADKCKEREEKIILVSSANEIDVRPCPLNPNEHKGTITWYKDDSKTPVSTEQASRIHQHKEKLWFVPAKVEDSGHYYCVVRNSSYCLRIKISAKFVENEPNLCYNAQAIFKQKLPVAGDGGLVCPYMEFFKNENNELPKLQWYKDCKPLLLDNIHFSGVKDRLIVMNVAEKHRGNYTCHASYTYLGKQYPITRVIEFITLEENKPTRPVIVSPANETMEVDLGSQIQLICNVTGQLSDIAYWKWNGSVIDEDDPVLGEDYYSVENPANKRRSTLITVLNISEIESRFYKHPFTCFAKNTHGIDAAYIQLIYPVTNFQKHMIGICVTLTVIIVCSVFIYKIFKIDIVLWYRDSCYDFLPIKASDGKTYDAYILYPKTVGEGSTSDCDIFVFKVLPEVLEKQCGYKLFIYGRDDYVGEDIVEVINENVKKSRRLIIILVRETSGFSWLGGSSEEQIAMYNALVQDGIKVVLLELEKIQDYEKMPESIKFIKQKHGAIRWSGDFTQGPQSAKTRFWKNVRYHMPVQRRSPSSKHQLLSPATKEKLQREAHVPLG",
  "experiment": "IL-1β and IL-1R tl inhibitors: effects on LIF-R levels in Ishikawa cells (Western blot)",
  "type": "cell-based",
  "method": "Primary human endometrial cells (ESC and EEC) were cultured for 5-9 days in DMEM-F12 medium containing 5% fetal bovine serum (FBS), 5 μg/ml insulin, 1% amphopthericin B, 100 μg/ml streptomycin and 100 U/ml penicillin until they were 80% confluent. Two types of endometrial epithelial cell lines, HES (originally derived from a benign proliferative endometrium) and Ishikawa (human endometrial epithelial adenocarcinoma, ECACC 9832301, Wiltshire, England) were cultured under the same conditions described above. The cells were washed twice with 100 mM phosphate saline buffer (PBS), pH 7.2 and cultured for additional 2 days in the same medium but without FBS (basal medium). Cells were washed as described before and cultured in basal medium containing leptin (0, 3, 10 or 62 nM) or IL-1β (0.6, 3 and 10 nM). […]\nEndometrial cells were washed with ice-cold PBS and lysed by homogenization on ice with lysis buffer A [[…] Tris, pH 7.4, containing 137 nM NaCl, 2 mM EDTA, 10% glycerol, 50 mM β-glycerophosphate, 1% Nonidet P-40 and a mixture of proteases and phosphatase inhibitors composed of 100 μM antipain, 0.1 mg/ml trypsin inhibitor, protease inhibitor cocktail 1:50 (Sigma), 50 nM NaF, 2 mM phenyl-methylsulfonyl fluoride, and 2 mM sodium orthovanadate]. […] Protein concentrations were determined using the Bradford protein assay (BioRad Laboratories Inc., Hercules, Calif.). […]",
  "data": [
    {"substance": "IL-1Ra: human recombinant IL-1 receptor antagonist (R&D Systems), inhibitor of IL-1R tl", "values": [
      {"measurement": "effect on leptin-induced increase in LIF-R levels", "setting": "IL-1Ra 1000 pg/ml or anti IL-1R tl antibody 20 μg/ml", "result": "partially blocked"}
    ]},
    {"substance": "IL-1β: human recombinant IL-1β (R&D Systems)", "values": [
      {"measurement": "LIF-R levels after IL-1β", "setting": "IL-1β 3 and 10 nM, dose dependent", "result": "increased the levels of LIF-R"}
    ]}
  ]
}
